Data on two substances can be found in article PMC3078076.

For assay [1], the target named is Human HP1β CSD (human). Put plainly: SEC.
The target in assay [2] is Human HP1β CSD (human). Put plainly: crystal structure.

With Human HP1β CSD (domain or fragment), the stoichiometry N in assay [1] and in assay [2] was 2 throughout.

“Sgo1P1 (from UniProt Q5FBB7 425-443) (peptide)”: the stoichiometry N (Sgo1P1 per two HP1β CSD) in assay [1] amounted to 1. This substance also displayed a stoichiometry N (Sgo1P1 peptide per CSD dimer) in assay [2] of 1.
